Measurements taken from US20240376151A1, “STAPLED PEPTIDES AND METHODS THEREOF” (FOG PHARMACEUTICALS, INC., priority 2022, published 2024).
Numbered stars: 1 amine (or outer) side, 2 acyl side, 3 side chain; on linkers, the order of the positions; unused ones are H or OH. Bridge positions count the residues as written; N and C are the ends. Ends that are not written are not given here. Phenylene(1,4-NHCOCH2)2 = O=C(C[*:1])Nc1ccc(NC(=O)C[*:2])cc1

Molecular target: T1, CHIP (Homo sapiens, UniProt Q9UNE7)
T1 construct: N-term truncated CHIP (also known as STUB1, Uniprot ID: Q9UNE7, residues 23-303); made in house; host or cells: E. coli BL21 CodonPlus
T1 sequence (Q9UNE7 23-303): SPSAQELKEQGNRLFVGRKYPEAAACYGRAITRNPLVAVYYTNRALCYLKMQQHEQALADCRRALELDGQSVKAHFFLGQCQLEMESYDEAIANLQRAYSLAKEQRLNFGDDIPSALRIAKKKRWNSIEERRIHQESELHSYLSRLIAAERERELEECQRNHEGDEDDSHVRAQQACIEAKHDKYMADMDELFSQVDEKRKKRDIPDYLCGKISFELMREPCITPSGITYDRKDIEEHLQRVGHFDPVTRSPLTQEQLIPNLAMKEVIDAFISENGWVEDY
Test: Naive Library Presenter Screening (phage, NGS), CHIP
Type: binding
Conditions: for interaction data, BLANK: Blank = Media only
Description: To conduct phage library screening, previously described procedures were utilized in accordance with the present disclosure.
Next-generation sequencing was performed as described in accordance with the present disclosure.
Hit ID and Clustering is performed according to a described procedure in accordance with the present disclosure.

[1] = CHIP clusters (C83, C84), first column
[2] = CHIP clusters (C83, C84), second column
[3] = CHIP clusters (C83, C84), target concentration 10 nM
[4] = CHIP clusters (C83, C84), target concentration 30 nM
[5] = CHIP clusters (C83, C84), target concentration 100 nM
[6] = CHIP clusters (C83, C84), target concentration 300 nM
[7] = CHIP clusters (C83, C84), target concentration 1000 nM, first column
[8] = CHIP clusters (C83, C84), target concentration 1000 nM, second column
[9] = CHIP target concentration 10 nM
[10] = CHIP target concentration 30 nM
[11] = CHIP target concentration 100 nM
[12] = CHIP target concentration 300 nM
[13] = CHIP target concentration 1000 nM, first column
[14] = CHIP target concentration 1000 nM, second column

Row | Sequence | interaction data, BLANK [1] | interaction data, BLANK [2] | interaction data at Target Concentration 10 [3] | interaction data at Target Concentration 30 [4] | interaction data at Target Concentration 100 [5] | interaction data at Target Concentration 300 [6] | interaction data at Target Concentration 1000 [7] | interaction data at Target Concentration 1000 [8] | interaction data at Target Concentration 10 [9] | interaction data at Target Concentration 30 [10] | interaction data at Target Concentration 100 [11] | interaction data at Target Concentration 300 [12] | interaction data at Target Concentration 1000 [13] | interaction data at Target Concentration 1000 [14]
1 | DPAFEQCQFAAAMCLHH (linker 7-14 via Phenylene(1,4-NHCOCH2)2 (inferred)) | 0 | 0 | 0 | 6 | 1 | 17 | 42 | 21 |  |  |  |  |  | 
2 | DPAFERCQLAAAFCYDS (linker 7-14 via Phenylene(1,4-NHCOCH2)2 (inferred)) | 0 | 0 | 0 | 0 | 2 | 15 | 60 | 47 |  |  |  |  |  | 
3 | DPANHICHYAAHICDVD (DPANHICHYAAHICDVD-NH2; linker 7-14 via Phenylene(1,4-NHCOCH2)2 (inferred)) | 0 | 0 | 0 | 0 | 3 | 15 | 6 | 49 |  |  |  |  |  | 
4 | DPAFFECVRAASICMVD (linker 7-14 via Phenylene(1,4-NHCOCH2)2 (inferred)) | 0 | 0 | 0 | 0 | 0 | 51 | 41 | 54 |  |  |  |  |  | 
5 | DPALEECTQAAHICMVD (linker 7-14 via Phenylene(1,4-NHCOCH2)2 (inferred); not fully specified (C-terminus)) | 0 | 0 | 0 | 0 | 3 | 14 | 26 | 10 |  |  |  |  |  | 
6 | ICYNAWVECE (linker 2-9 via Phenylene(1,4-NHCOCH2)2 (inferred)) |  |  |  |  |  |  |  |  | 1 | 2 | 10 | 21 | 19 | 23
7 | PCWNAWLYCSN (linker 2-9 via Phenylene(1,4-NHCOCH2)2 (inferred)) |  |  |  |  |  |  |  |  | 0 | 0 | 11 | 105 | 155 | 58
8 | DPAFWQCQFAAATCAHY (linker 7-14 via Phenylene(1,4-NHCOCH2)2 (inferred)) | 0 | 0 | 0 | 0 | 19 | 16 | 70 | 44 |  |  |  |  |  | 

Other lines, results leading:

Row | interaction data, BLANK [1] | interaction data, BLANK [2] | interaction data at Target Concentration 10 [3] | interaction data at Target Concentration 30 [4] | interaction data at Target Concentration 100 [5] | interaction data at Target Concentration 300 [6] | interaction data at Target Concentration 1000 [7] | interaction data at Target Concentration 1000 [8] | interaction data at Target Concentration 10 [9] | interaction data at Target Concentration 30 [10] | interaction data at Target Concentration 100 [11] | interaction data at Target Concentration 300 [12] | interaction data at Target Concentration 1000 [13] | interaction data at Target Concentration 1000 [14] | Sequence
9 | 0 | 0 | 0 | 0 | 0 | 15 | 7 | 29 |  |  |  |  |  |  | DPAMWHCQYAAIMCNAN (DPAMWHCQYAAIMCNAN-NH2; linker 7-14 via Phenylene(1,4-NHCOCH2)2 (inferred))
10 | 0 | 0 | 0 | 30 | 23 | 39 | 80 | 248 |  |  |  |  |  |  | DPAFDACQFAAAMCDHQ (linker 7-14 via Phenylene(1,4-NHCOCH2)2 (inferred))
11 | 0 | 0 | 0 | 3 | 0 | 6 | 19 | 28 |  |  |  |  |  |  | DPAFTRCQFAAAVCNFT (linker 7-14 via Phenylene(1,4-NHCOCH2)2 (inferred))
12 |  |  |  |  |  |  |  |  | 19 | 142 | 542 | 632 | 701 | 581 | PCWDAWMLCTD (linker 2-9 via Phenylene(1,4-NHCOCH2)2 (inferred))
13 |  |  |  |  |  |  |  |  | 0 | 0 | 0 | 74 | 143 | 57 | PMCSDAWLFCE (linker 3-10 via Phenylene(1,4-NHCOCH2)2 (inferred))
14 |  |  |  |  |  |  |  |  | 1 | 3 | 13 | 25 | 22 | 28 | ICYSAWLECE (linker 2-9 via Phenylene(1,4-NHCOCH2)2 (inferred))
15 | 1 | 0 | 8 | 3 | 160 | 86 | 331 | 323 |  |  |  |  |  |  | DPAFWVCQYAAAMCQDV (linker 7-14 via Phenylene(1,4-NHCOCH2)2 (inferred))
16 |  |  |  |  |  |  |  |  | 4 | 81 | 123 | 444 | 549 | 468 | PCYSAWIVCSD (linker 2-9 via Phenylene(1,4-NHCOCH2)2 (inferred))
17 | 0 | 0 | 0 | 12 | 0 | 43 | 46 | 90 |  |  |  |  |  |  | DPAFEYCQWAAATCQMD (linker 7-14 via Phenylene(1,4-NHCOCH2)2 (inferred))
18 | 0 | 0 | 0 | 0 | 22 | 19 | 20 | 62 |  |  |  |  |  |  | DPAYDVCHFAAHICWID (linker 7-14 via Phenylene(1,4-NHCOCH2)2 (inferred))
